This series concerns the molecule itself. The series is described as follows: SEC-MALS. (In general: Size exclusion chromatography separates by hydrodynamic size, large species first.)

B1: miniTRIM37 RBhcc B-box-2 mutant (other)
chain: MDEQSVESIAEVFRCFICMEKLRDARLCPHCSKLCCFSCIRRWLTEQRAQCPHCRAPLQLRELVNCRWAEEVTQQLDTLQLCSLTKHEENEKDKCENHHEKLSVFCWTCKKCICAQCADWGGMHGGHTFKPLAEIYEQHVTKVNEEVAKLRRRLMELITERNQVAKRVPKAPPEEKEALIARGKALGEETELLESLLQEVEHQLRSCSKSELISKSSEILMMFQQVHRK
For orientation: stoichiometry N means a count of units in the complex or per binding partner. Consider B1, for which the “stoichiometry N” value amounted to 2.

These data come from paper PMC11482875 (bioRxiv, 2024).
